This experiment concerns the target T1, Human PTK7 (human, UniProt Q13308 31-1070).
T1 sequence: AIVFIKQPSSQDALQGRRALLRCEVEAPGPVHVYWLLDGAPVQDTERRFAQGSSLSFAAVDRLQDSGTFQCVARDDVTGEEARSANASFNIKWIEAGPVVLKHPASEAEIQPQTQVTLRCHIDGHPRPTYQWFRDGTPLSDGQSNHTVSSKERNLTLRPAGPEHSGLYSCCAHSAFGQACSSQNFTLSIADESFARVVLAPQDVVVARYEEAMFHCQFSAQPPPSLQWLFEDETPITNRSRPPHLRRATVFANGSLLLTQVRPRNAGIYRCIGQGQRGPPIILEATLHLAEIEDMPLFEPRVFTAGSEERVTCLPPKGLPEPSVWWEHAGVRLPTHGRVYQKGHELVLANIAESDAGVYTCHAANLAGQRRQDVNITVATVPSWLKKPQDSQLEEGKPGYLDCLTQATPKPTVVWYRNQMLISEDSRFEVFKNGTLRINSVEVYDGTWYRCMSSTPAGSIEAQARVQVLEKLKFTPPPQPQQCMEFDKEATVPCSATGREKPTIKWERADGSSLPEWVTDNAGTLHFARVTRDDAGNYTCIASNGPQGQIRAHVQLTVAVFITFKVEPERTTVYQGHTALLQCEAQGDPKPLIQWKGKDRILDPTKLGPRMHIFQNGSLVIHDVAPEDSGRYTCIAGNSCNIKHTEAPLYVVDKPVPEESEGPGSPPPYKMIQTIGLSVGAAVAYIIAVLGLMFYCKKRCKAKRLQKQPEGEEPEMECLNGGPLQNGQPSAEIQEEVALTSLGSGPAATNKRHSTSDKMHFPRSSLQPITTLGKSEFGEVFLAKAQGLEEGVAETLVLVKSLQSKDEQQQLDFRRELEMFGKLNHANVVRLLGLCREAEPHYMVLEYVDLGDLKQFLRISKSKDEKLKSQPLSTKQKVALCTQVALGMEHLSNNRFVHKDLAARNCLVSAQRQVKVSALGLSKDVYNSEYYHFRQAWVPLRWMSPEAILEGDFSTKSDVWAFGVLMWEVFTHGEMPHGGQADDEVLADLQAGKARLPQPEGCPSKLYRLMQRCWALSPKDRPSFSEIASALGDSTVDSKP
Briefly: cell-based or functional assay.

B1: MYT11257 (antibody, V domains shown)
VH: EVQLVESGGGLVQPGGSLRLSCTASGIDHSRYSMGWVRQAPGKGLEWVGIISYGGSTYYASWAKGRFTISRDTSKNTVYLQMNSLRAEDTAVYFCARVGYPGYSGYGYAFDAFDPWGQGTLVTVSS
VL: EIVMTQSPSTLSASVGDRVIITCQSSKSVYNDNWLSWYQQKPGKAPKLLIYGASTLASGVPSRFSGSGSGAEFTLTISSLQPDDFATYYCAGGYSSSSDNGFGQGTKLTVL
Consider B1, for which the “Internalization, FOW @ 25 nM (fold over the wildtype, parental antibody)” value is 1.11 fold over parental antibody.

B2: MYT11261 (antibody, V domains shown)
VH: EVQLVESGGGLVQPGGSLRLSCTASGIDLSRYHMGWVRQAPGKGLEWVGIISYGGSTYYASWAKGRFTISRDTSKNTVYLQMNSLRAEDTAVYFCARVGYPGYSGYGYAFDAFDPWGQGTLVTVSS
VL: EIVMTQSPSTLSASVGDRVIITCQSSKSVYNDNWLSWYQQKPGKAPKLLIYGASTLASGVPSRFSGSGSGAEFTLTISSLQPDDFATYYCAGGYSSSSDNGFGQGTKLTVL
For the molecule B2, the “Internalization, FOW @ 25 nM (fold over the wildtype, parental antibody)” value was 1.24 fold over parental antibody.

B3: MYT11259 (antibody, V domains shown)
VH: EVQLVESGGGLVQPGGSLRLSCTASGIDLSHYSMGWVRQAPGKGLEWVGIISYGGSTYYASWAKGRFTISRDTSKNTVYLQMNSLRAEDTAVYFCARVGYPGYSGYGYAFDAFDPWGQGTLVTVSS
VL: EIVMTQSPSTLSASVGDRVIITCQSSKSVYNDNWLSWYQQKPGKAPKLLIYGASTLASGVPSRFSGSGSGAEFTLTISSLQPDDFATYYCAGGYSSSSDNGFGQGTKLTVL
Take B3: the “Internalization, FOW @ 25 nM (fold over the wildtype, parental antibody)” value is 1.14 fold over parental antibody.

B4: MYT11264 (antibody, V domains shown)
VH: EVQLVESGGGLVQPGGSLRLSCTASGIDLSRYSMGWVRQAPGKGLEWVGHISYGGSTYYASWAKGRFTISRDTSKNTVYLQMNSLRAEDTAVYFCARVGYPGYSGYGYAFDAFDPWGQGTLVTVSS
VL: EIVMTQSPSTLSASVGDRVIITCQSSKSVYNDNWLSWYQQKPGKAPKLLIYGASTLASGVPSRFSGSGSGAEFTLTISSLQPDDFATYYCAGGYSSSSDNGFGQGTKLTVL
With B4, the “Internalization, FOW @ 25 nM (fold over the wildtype, parental antibody)” value is 1.13 fold over parental antibody.

B5: MYT11069 (antibody, V domains shown)
VH: EVQLVESGGGLVQPGGSLRLSCTASGLSLSSYWMSWVRQAPGKGLEWVGVISAGGNTYYANWAKGRFTISRDTSKNTVYLQMNSLRAEDTAVYYCARGDDGYTNAAYVSNLWGQGTLVTVSS
VL: EIVMTQSPSTLSASVGDRVIITCQASQSISSWLSWYQQKPGKAPKLLIYKASTLASGVPSRFSGSGSGAEFTLTISSLQPDDFATYYCQSYFDSTTIAFGQGTKLTVL
For B5, the “Internalization, FOW @ 25 nM (fold over the wildtype, parental antibody)” value is 1.22 fold over parental antibody.

B6: MYT11079 (antibody, V domains shown)
VH: EVQLVESGGGLVQPGGSLRLSCTASGLSLSSYWMSWVRQAPGKGLEWVGVISAGGNTYYANWAKGRFTISRDTSKNTVYLQMNSLRAEDTAVYFCARGDDGYTNAAYVSNLWGQGTLVTVSS
VL: EIVMTQSPSTLSASVGDRVIITCQASQSISHWLSWYQQKPGKAPKLLIYKASTLASGVPSRFSGSGSGAEFTLTISSLQPDDFATYYCQSYFDSTTIAFGQGTKLTVL
With B6, the “Internalization, FOW @ 25 nM (fold over the wildtype, parental antibody)” value was 1.2 fold over parental antibody.

B7: MYT11078 (antibody, V domains shown)
VH: EVQLVESGGGLVQPGGSLRLSCTASGLSLSSYWMSWVRQAPGKGLEWVGVISAGGNTYYANWAKGRFTISRDTSKNTVYLQMNSLRAEDTAVYFCARGDDGYTNAAYVSNLWGQGTLVTVSS
VL: EIVMTQSPSTLSASVGDRVIITCQASQSIHSWLSWYQQKPGKAPKLLIYKASTLASGVPSRFSGSGSGAEFTLTISSLQPDDFATYYCQSYFDSTTIAFGQGTKLTVL
With B7, the “Internalization, FOW @ 25 nM (fold over the wildtype, parental antibody)” value is 1.24 fold over parental antibody.

B8: MYT11084 (antibody, V domains shown)
VH: EVQLVESGGGLVQPGGSLRLSCTASGLSLSSYWMSWVRQAPGKGLEWVGVISAGGNTYYANWAKGRFTISRDTSKNTVYLQMNSLRAEDTAVYFCARGDDGYTNAAYVSNLWGQGTLVTVSS
VL: EIVMTQSPSTLSASVGDRVIITCQASQSISSWLSWYQQKPGKAPKLLIYKHSTLASGVPSRFSGSGSGAEFTLTISSLQPDDFATYYCQSYFDSTTIAFGQGTKLTVL
In the case of B8, the “Internalization, FOW @ 25 nM (fold over the wildtype, parental antibody)” value is 1.14 fold over parental antibody.

B9: MYT11096 (antibody, V domains shown)
VH: EVQLVESGGGLVQPGGSLRLSCTASGLSLSSYWMSWVRQAPGKGLEWVGVISAGGNTYYANWAKGRFTISRDTSKNTVYLQMNSLRAEDTAVYFCARGDDGYTNAAYVSNLWGQGTLVTVSS
VL: EIVMTQSPSTLSASVGDRVIITCQASQSISSWLSWYQQKPGKAPKLLIYKASTLASGVPSRFSGSGSGAEFTLTISSLQPDDFATYYCQSYFDSHTIAFGQGTKLTVL
As for B9, the “Internalization, FOW @ 25 nM (fold over the wildtype, parental antibody)” value is 1.43 fold over parental antibody.

B10: MYT11081 (antibody, V domains shown)
VH: EVQLVESGGGLVQPGGSLRLSCTASGLSLSSYWMSWVRQAPGKGLEWVGVISAGGNTYYANWAKGRFTISRDTSKNTVYLQMNSLRAEDTAVYFCARGDDGYTNAAYVSNLWGQGTLVTVSS
VL: EIVMTQSPSTLSASVGDRVIITCQASQSISSWHSWYQQKPGKAPKLLIYKASTLASGVPSRFSGSGSGAEFTLTISSLQPDDFATYYCQSYFDSTTIAFGQGTKLTVL
B10: the “Internalization, FOW @ 25 nM (fold over the wildtype, parental antibody)” value is 1.22 fold over parental antibody.

B11: MYT11100 (antibody, V domains shown)
VH: EVQLVESGGGLVQPGGSLRLSCTASGLSLSSYWMSWVRQAPGKGLEWVGVISAGGNTYYANWAKGRFTISRDTSKNTVYLQMNSLRAEDTAVYFCARGDDGYTNAAYVSNLWGQGTLVTVSS
VL: EIVMTQSPSTLSASVGDRVIITCQASQSISSWLSWYQQKPGKAPKLLIYKASTLASGVPSRFSGSGSGAEFTLTISSLQPDDFATYYCQSYFDSTTIAFGQGTKLEIK
On to B11, for which the “Internalization, FOW @ 25 nM (fold over the wildtype, parental antibody)” value was 1.17 fold over parental antibody.

B12: MYT11142 (antibody, V domains shown)
VH: EVQLVESGGGLVQPGGSLRLSCTASGFSLSTYAMSWVRQAPGKGLEWVGMIYINDNTYYASWAKGRFTISRDTSKNTVYLQMNSLRAEDTAVYYCARDIGISYYIGVSLWGQGTLVTVSS
VL: EIVMTQSPSTLSASVGDRVIITCQASQSIGTRLSWYQQKPGKAPKLLIYGASKLATGVPSRFSGSGSGAEFTLTISSLQPDDFATYYCLGEYSYTTTDGIAFGQGTKLTVL
Regarding B12, the “Internalization, FOW @ 25 nM (fold over the wildtype, parental antibody)” value is 1.29 fold over parental antibody.

B13: MYT11143 (antibody, V domains shown)
VH: EVQLVESGGGLVQPGGSLRLSCTASGFSLSTYAMSWVRQAPGKGLEWVGMIYINANTYYASWAKGRFTISRDTSKNTVYLQMNSLRAEDTAVYFCARDIGISYYIGVSLWGQGTLVTVSS
VL: EIVMTQSPSTLSASVGDRVIITCQASQSIGTRLSWYQQKPGKAPKLLIYGASKLATGVPSRFSGSGSGAEFTLTISSLQPDDFATYYCLGEYSYTTTDGIAFGQGTKLTVL
Consider B13, for which the “Internalization, FOW @ 25 nM (fold over the wildtype, parental antibody)” value is 1.61 fold over parental antibody.

B14: MYT11190 (antibody, V domains shown)
VH: EVQLVESGGGLVQPGGSLRLSCTASGIDLSSYVMGWVRQAPGKGLEWVGHIYGGGGTYYATWARGRFTISRDTSKNTVYLQMNSLRAEDTAVYFCARAAADFYFNLWGQGTLVTVSS
VL: EIVMTQSPSTLSASVGDRVIITCQASQSISSYLAWYQQKPGKAPKLLIYDISDLASGVPSRFSGSGSGAEFTLTISSLQPDDFATYYCQSYYWISNSGAAFGQGTKLTVL
As for B14, the “Internalization, FOW @ 25 nM (fold over the wildtype, parental antibody)” value was 1.32 fold over parental antibody.

B15: MYT11232 (antibody, V domains shown)
VH: EVQLVESGGGLVQPGGSLRLSCTASGIDLSSYVMGWVRQAPGKGLEWVGYIYGGGGTYYATWARGRFTISRDTSKNTVYLQMNSLRAEDTAVYFCARAAADFYFNLWGQGTLVTVSS
VL: EIVMTQSPSTLSASVGDRVIITCQASQSISSYLAWYQQKPGKAPKLLIYDHSDLASGVPSRFSGSGSGAEFTLTISSLQPDDFATYYCQSYYWISNSGAAFGQGTKLTVL
B15: the “Internalization, FOW @ 25 nM (fold over the wildtype, parental antibody)” value is 1.15 fold over parental antibody.

B16: MYT11212 (antibody, V domains shown)
VH: EVQLVESGGGLVQPGGSLRLSCTASGIDLSSYVMGWVRQAPGKGLEWVGYIYGGGGTYYATWARGRFTISRDTSKNTVYLQMNSLRAEDTAVYFCARAAADHYFNLWGQGTLVTVSS
VL: EIVMTQSPSTLSASVGDRVIITCQASQSISSYLAWYQQKPGKAPKLLIYDISDLASGVPSRFSGSGSGAEFTLTISSLQPDDFATYYCQSYYWISNSGAAFGQGTKLTVL
As for B16, the “Internalization, FOW @ 25 nM (fold over the wildtype, parental antibody)” value was 1.23 fold over parental antibody.

B17: MYT11211 (antibody, V domains shown)
VH: EVQLVESGGGLVQPGGSLRLSCTASGIDLSSYVMGWVRQAPGKGLEWVGYIYGGGGTYYATWARGRFTISRDTSKNTVYLQMNSLRAEDTAVYFCARAAAHFYFNLWGQGTLVTVSS
VL: EIVMTQSPSTLSASVGDRVIITCQASQSISSYLAWYQQKPGKAPKLLIYDISDLASGVPSRFSGSGSGAEFTLTISSLQPDDFATYYCQSYYWISNSGAAFGQGTKLTVL
B17: the “Internalization, FOW @ 25 nM (fold over the wildtype, parental antibody)” value is 1.14 fold over parental antibody.
